The text below walks through data of US20130316022A1, “METHOD TO ENHANCE ANTIMICROBIAL ACTIVITY BY INCREASING pH” (University of Iowa Research Foundation, priority 2012, published 2013).

The test system of test [1] is S. aureus Xen29. Nature of the test: S. aureus luminescence antibacterial assay, effect of pH. Format: cell-based. How it is done: (§1) To assess the effect of pH on the antibacterial activity of lysozyme and lactoferrin, we used a luminescence assay of bacterial viability that has been described previously ^15. The bacteria used were S. aureus Xen29 (Caliper LifeSciences Bioware™, Hopkinton, Mass.) and E. coli DH5a (GIBCO BRL, Life Technologies, Grand Island, N.Y.) expressing a luminescence plasmid pCGLS1. E. coli were grown in Luria-Bertani medium containing ampicillin (100 μg/ml, to maintain the plasmid) at 30° C. with shaking. For S. aureus, kanamycin 10 μg/ml was used instead of ampicillin. Log phase bacteria were centrifuged and resuspended in 1% Tryptic Soy Broth medium with 10 mM HEPES titrated to pH values from 6.8-8.0. E. coli (5×10^6 CFU) or S. aureus (5×10^5 CFU) were incubated with the indicated concentrations of lysozyme or lactoferrin in 96-well plates (Optiplate-96, Perkin Elmer, Waltham, Mass.) in a total volume of 120 μl. Controls were the same conditions in the same plates, but without lysozyme or lactoferrin. After incubation at 30° C. for the indicated times, luminescence was measured with a luminometer (Spectra Max L, Molecular Devices, Sunnyvale, Calif.) and was reported as relative light units (RLU). A previous study^16 determined that reductions in luminescence have an excellent correlation with a decrease in CFU.

Test [2] concerns E. coli DH5a expressing luminescence plasmid pCGLS1. Description: E. coli luminescence antibacterial assay, effect of pH. The settings on record: pH values from 6.8-8.0 (FIG. 8). It counts as cell-based. How it is done: as §1

B1: lysozyme (protein, UniProt P61626 19-148, looked up)
Lysozyme C: KVFERCELARTLKRLGMDGYRGISLANWMCLAKWESGYNTRATNYNAGDRSTDYGIFQINSRYWCNDGKTPGAVNACHLSCSALLQDNIADAVACAKRVVRDPQGIRAWVAWRNRCQNRDVRQYVQGCGV
notes: endogenous ASL antimicrobial protein, tested at 1.25 mg/ml
As to B1, the “relative luminescence compared to control” value in test [1] (pH 6.8, 1.25 mg/ml lysozyme, 30 minutes) came to 49.1 ± 3.4; in test [1] (pH 7.2, 1.25 mg/ml lysozyme, 30 minutes), 43.5 ± 1.5; in test [1] (pH 7.6, 1.25 mg/ml lysozyme, 30 minutes) it was 30.6 ± 2.3; in test [1] (pH 8.0, 1.25 mg/ml lysozyme, 30 minutes), 23.4 ± 0.8. In addition, in test [2], the “effect of pH on E. coli killing” value is “increasing pH increased S. aureus and E. coli killing”.

B2: lactoferrin (protein, UniProt P02788 20-710, looked up)
Lactotransferrin: GRRRSVQWCAVSQPEATKCFQWQRNMRKVRGPPVSCIKRDSPIQCIQAIAENRADAVTLDGGFIYEAGLAPYKLRPVAAEVYGTERQPRTHYYAVAVVKKGGSFQLNELQGLKSCHTGLRRTAGWNVPIGTLRPFLNWTGPPEPIEAAVARFFSASCVPGADKGQFPNLCRLCAGTGENKCAFSSQEPYFSYSGAFKCLRDGAGDVAFIRESTVFEDLSDEAERDEYELLCPDNTRKPVDKFKDCHLARVPSHAVVARSVNGKEDAIWNLLRQAQEKFGKDKSPKFQLFGSPSGQKDLLFKDSAIGFSRVPPRIDSGLYLGSGYFTAIQNLRKSEEEVAARRARVVWCAVGEQELRKCNQWSGLSEGSVTCSSASTTEDCIALVLKGEADAMSLDGGYVYTAGKCGLVPVLAENYKSQQSSDPDPNCVDRPVEGYLAVAVVRRSDTSLTWNSVKGKKSCHTAVDRTAGWNIPMGLLFNQTGSCKFDEYFSQSCAPGSDPRSNLCALCIGDEQGENKCVPNSNERYYGYTGAFRCLAENAGDVAFVKDVTVLQNTDGNNNEAWAKDLKLADFALLCLDGKRKPVTEARSCHLAMAPNHAVVSRMDKVERLKQVLLHQQAKFGRNGSDCPDKFCLFQSETKNLLFNDNTECLARLHGKTTYEKYLGPQYVAGITNLKKCSTSPLLEACEFLRK
notes: endogenous ASL antimicrobial protein, tested at 4 mg/ml
Turning to B2, the “relative luminescence compared to control” value is reported as 85.0 ± 9.3 in test [1] (pH 6.8, 4 mg/ml lactoferrin, 60 minutes); 73.6 ± 8.2 in test [1] (pH 7.2, 4 mg/ml lactoferrin, 60 minutes); 60.8 ± 4.8 in test [1] (pH 7.6, 4 mg/ml lactoferrin, 60 minutes); 39.8 ± 5.0 in test [1] (pH 8.0, 4 mg/ml lactoferrin, 60 minutes). For the same molecule, the “effect of pH on E. coli killing” value in test [2] is “increasing pH increased S. aureus and E. coli killing”.
